# Data published in patent publication US7993884B2, “Beta-xylosidase for conversion of plant cell wall carbohydrates to simple sugars” (The United States of America as represented by the …, priority 2006, dated 2011).
# Numbering of substitutions follows the chain as printed. Names and notes keep the numbering of the source.
# B1: Selenomonas ruminantium GA192 β-D-xylosidase (SXA, parent SEQ ID NO: 2) variant E186A (Pseudoselenomonas ruminantium; E186A) (protein)
# chain: MNIQNPVLKGFNPDPSIVRAGDDYYIATSTFEWFPGVQIHHSKDLVHWHLVAHPLSTTEFLDMKGNPDSGGIWAPDLSYADGKFWLIYTDVKVVDGMWKDCHNYLTTAEDIKGPWSKPILLNGAGFDASLFHDPSGKKYLVNMYWDQRVYHHNFYGIALQEYSVAEEKLIGKPEIIYKGTDIAYTAGPHLYYINDMYYLMTAEGGTTYQHSETIARSKTIHGPYEIQPDYPLLSAWKEVHNPLQKCGHASLVETQNGQWYLAHLTGRPLPAPAGFPSREREQHAFCPLGRETAIQKIEWQDGWPVVVGGQQGSLEVEAPDLPQQEWAPTYEERDDFDKDTLNINFQTLRIPFSEHLGSLTARPGFLRLYGRESLQSKFTQAHIARRWQSFNFDAGTSVEFSPNSFQQMAGLTCYYNTENWSSIHVTWNEEKGRIIDLVTADNGTFSMPLAGAEIPIPDEVKTVHFKVSVRGRIYQYAYSFDGETFHTLPIELPSWKLSDDYVRGGGFFTGAFVGINAIDITGTALPADFDYFTYKELD
# B2: Selenomonas ruminantium GA192 β-D-xylosidase (SXA, parent SEQ ID NO: 2) variant H248A (Pseudoselenomonas ruminantium; H248A) (protein)
# chain: B1 chain with A186E, H248A
# B3: Selenomonas ruminantium GA192 β-D-xylosidase (SXA, parent SEQ ID NO: 2) variant R290A (Pseudoselenomonas ruminantium; R290A) (protein)
# chain: B1 chain with A186E, R290A
# B4: Selenomonas ruminantium GA192 β-D-xylosidase (SXA, parent SEQ ID NO: 2) variant D127A (Pseudoselenomonas ruminantium; D127A) (protein)
# chain: B1 chain with D127A, A186E
# B5: Selenomonas ruminantium GA192 β-D-xylosidase (SXA, parent SEQ ID NO: 2) variant D14A (Pseudoselenomonas ruminantium; D14A) (protein)
# chain: B1 chain with D14A, A186E
# Columns and labels:
# [1] = substrate: O=[N+]([O-])c1ccc(O[C@@H]2OC[C@@H](O)[C@H](O)[C@H]2O)cc1; test: purified protein, by the assay type; conditions: other: 100 mM succinate-NaOH, pH 5.3, 25° C, Method A
# Procedure: (§1) Site-directed mutagenesis was performed using the QuikChange site-directed mutagenesis kit (Stratagene) according the manufacturer's instructions. […] Complete sequences were determined on a 3700 sequencer (Applied Biosystems) using T7 promoter and specific primers to confirm that only the intended mutations had been introduced. Lasergene software (DNAStar) was used to analyze the sequence data. pSRA1 and its mutated plasmids were used for the transformation of E. coli BL21(DE3). Transformants were inoculated to 50 mL Luria-Bertani (LB) broth supplemented with 50 mg ampicillin/mL and the flask was shaken overnight at 250 rpm and 37° C. Twenty mL of the overnight culture were transferred to a 2.8-liter baffled flask containing 1.0 liter SOB medium [2.0% tryptone, 0.5% yeast extract, 0.05% NaCl, 0.0186% KCl (all in wt/vol) and 10 mM MgSO4] supplemented with 50 mg ampicillin/mL. The culture was shaken at 250 rpm and 37° C. […] Cells were harvested by centrifugation and cell pellets were stored at −80° C. until use.
# (§2) Initial purification steps and diafiltration steps were performed at 4° C. Chromatography was at room temperature (˜24° C.). Cells were thawed, suspended in 40 mL of 50 mM Tris-HCl, pH 7.5 (Buffer A) containing Complete protease inhibitor cocktail (Roche) and disrupted by sonication. Following centrifugation, the supernatant was brought to 30% saturation with respect to ammonium sulfate and centrifuged. […] The column was washed until absorbance at 280 nm of the eluate became minimal (˜200 mL) and developed with a 500-mL linear gradient (Buffer A+30% saturated ammonium sulfate to Buffer A).
# (§3) Two methods were employed for determining initial rates. […] Initial rates were calculated from fitting the absorbance readings versus time to a line (minimum of 4 points per reaction progression) and by using an extinction coefficient of 17.4 mM^−1 cm^−1. […] The concentration of 4NP substrates was determined by incubating the substrate with excess enzyme until an end point was reached, adding an aliquot (0.01 to 0.1 mL) to 0.1 M NaOH, recording the absorbance at 400 nm and using the extinction coefficient of 18.3 cm^−1mM^−1. Unless indicated otherwise, for both Methods A and B, reactions were initiated by adding a small aliquot of enzyme (generally 7 μl of enzyme diluted into 10 mM sodium phosphate, pH 7.0, and incubated on wet ice or at ˜25° C.) to the 1-mL, temperature-equilibrated (25° C.) reaction mixtures. For pH studies, buffers of constant ionic strength (I=0.3 M), adjusted with NaCl, were used as indicated: 100 mM succinate-NaOH (pH 4.3-6), 100 mM sodium phosphate (pH 6-8), 30 mM sodium pyrophosphate (pH 8-9), glycine-NaOH (pH 9) and glycylglycine-NaOH (pH 9).
# [2] = substrate: O=[N+]([O-])c1ccc(O[C@@H]2O[C@@H](CO)[C@H](O)[C@H]2O)cc1; test: purified protein, by the assay type; conditions: other: 100 mM succinate-NaOH, pH 5.3, 25° C, Method A
# Procedure: as §1, §2, §3
Protein,Km [1] [µM],Km [2] [µM],Km ([1]; not well determined (highest 4NPX 5 mM)) [µM]
B1,1100 ± 50,1320 ± 110,–
B2,1050 ± 70,–,–
B3,–,–,50300 ± 8800
B4,881 ± 59,–,–
B5,777 ± 36,771 ± 29,–
